We go through three molecules from US20230340114A1 (IMMUNE ONC THERAPEUTICS, published 2023).

The Kd is the constant that tells how readily two partners part at equilibrium. Usually EC50 stands for the concentration that produces a half-maximal response. In general, EC50 (read off the curve) refers to the concentration that produces a half-maximal response.

Assay [1] has as its target T1, recombinant cyno CD3e (Acro, cat #CDE-C5226) (cynomolgus monkey, UniProt Q95LI5 22-117).
T1 sequence (looked up): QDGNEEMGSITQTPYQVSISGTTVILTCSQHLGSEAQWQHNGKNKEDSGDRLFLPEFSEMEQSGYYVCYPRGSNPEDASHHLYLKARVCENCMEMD
Put plainly: BLI (Gator Bio), bispecific captured on anti-human Fc probe, cyno CD3e in solution, 1:1 global fit. As to the method:
(§1) Binding affinities of second-generation bispecific antibodies were measured to recombinant human CD3e (Acro, cat #CDE-H5223), cyno CD3e (Acro, cat #CDE-C5226), human LILRB4 (Sino Biological, cat #16742-H08H), and cyno LILRB4 (Acro, cat #CDK-C5227) by Bio-Layer Interferometry (BLI) using an instrument from Gator Bio. Bispecific antibodies were captured using an immobilized anti-human Fc antibody (HFC) probe (Gator Bio, cat #PL168-160003) at 5 ug/mL load. […] Binding affinity constants were determined using a 1:1 fitting model (Global Fit) with Gator's data analysis software 1.6.1.1203, and the KD was calculated using the ratio Kdis/Kon.

Assay [2] addresses T2, human LILRB4 expressed on cells (human, UniProt Q8NHJ6 22-448). Description: cell-based or functional assay.
For assay [3], the target named is recombinant human CD3e (Acro, cat #CDE-H5223) (human, UniProt P07766 23-126). Description: BLI (Gator Bio), bispecific captured on anti-human Fc probe, human CD3e in solution, 1:1 global fit. How it is done: as §1
Assay [4] has as its target T3, recombinant human LILRB4 protein (Sino Biological, cat #16742-H08H) (human, UniProt Q8NHJ6 22-259).
T3 construct: extracellular domain; also called LILRB4 recombinant protein (Sino Biological); Human LILRB4 ECD-his; not shown: his tag
Description: BLI (Gator Bio), bispecific captured on anti-human Fc probe, human LILRB4 in solution, 1:1 global fit. As to the method: as §1

Assay [5] has as its target T4, recombinant cyno LILRB4 (Acro, cat #CDK-C5227) (cynomolgus monkey).
T4 construct: extracellular domain; also called cynomolgus monkey LILRB4 ECD-his recombinant protein (ACRObiosystems)
Put plainly: BLI (Gator Bio), bispecific captured on anti-human Fc probe, cyno LILRB4 in solution, 1:1 global fit. How it is done:
as §1

Assay [6] has as its target T2, human LILRB4 expressed on cells. Put plainly: FACS on LILRB4+ THP-1 cells, Alexa 647 anti-human IgG Fc detection. How it is done: Binding of first and second generation bispecifics to CD3 or LILRB4 was measured by FACS on Jurkat cells or THP-1 cells. To measure binding of bispecifics to THP-1 cells, THP-1 cells were first incubated with human Fc blocker (BD Pharmingen Catalog No. 564220) at 10 ug per one million cells at room temperature for 10 minutes, followed by incubated with serially diluted bispecifics for 30 minutes on ice. Cells were washed twice with BSA staining buffer (BD Pharmingen Catalog No. 554657) and incubated with secondary Alexa 647 conjugated anti-human IgG Fc monoclonal antibody (Biolegend Catalog No. 409306) at 5 ug/mL for 30 minutes on ice. After final wash, 7-AAD was applied to exclude dead cells. To measure binding of first generation bispecifics to Jurkat cells, each bispecific was diluted in buffer including 1% BSA (5-fold dilution series, 400 nM highest concentration) and incubated with cells for 30 minutes at 4° C. Then bispecifics were stained with Alexa 647 anti-human IgG Fc at 5 ug/mL at 4° C. for 0.5 hours before analysis.

The target of the next assay is T5, CD3 on Jurkat cells (UniProt P07766 23-207).
T5 construct: whole, on cells; on cells it stands in the whole CD3/TCR complex; also called CD3+ Jurkat cells
Put plainly: FACS on CD3+ Jurkat cells; estimated, curve did not reach a plateau.

The target of assay [7] is T2, human LILRB4 expressed on cells. Description: FACS (Geo MFI) on THP-1 cells; panel assigned to THP-1 by the order in legend paragraph 86.
Assay [8] addresses T6, flag-tagged cynomolgus monkey LILRB4 expressed on CHO-K1 cells (cynomolgus monkey).
T6 construct: whole, on cells; also called cyno LILRB4
Description: FACS, CHO-stable cells expressing cyno LILRB4.

Assay [9] addresses T2, human LILRB4 expressed on cells. Put plainly: FACS, CHO-stable cells expressing human LILRB4. For orientation: In flow cytometry, cells or beads pass a laser one at a time.
The target is the same in assay [10]. Description: cell-based or functional assay. The source holds these as a separate data set.
The target is the same in assay [11]. Put plainly: FACS (Geo MFI) on normal human monocytes; panel assigned to monocytes by the order in legend paragraph 86.

T5 sequence (P07766 23-207): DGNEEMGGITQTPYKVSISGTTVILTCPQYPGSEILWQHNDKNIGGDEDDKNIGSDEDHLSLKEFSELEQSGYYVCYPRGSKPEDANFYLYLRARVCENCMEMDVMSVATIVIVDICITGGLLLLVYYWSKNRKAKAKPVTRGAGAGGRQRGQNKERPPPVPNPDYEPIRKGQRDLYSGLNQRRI
recombinant human CD3e (Acro, cat #CDE-H5223), sequence (P07766 23-126 limits assumed): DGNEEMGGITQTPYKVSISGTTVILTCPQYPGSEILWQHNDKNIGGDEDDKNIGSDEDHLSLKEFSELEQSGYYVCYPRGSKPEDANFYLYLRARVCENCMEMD

B1: 4-3ab Q1E S91A (bispecific antibody, human IgG1, kappa, L234A L235A)
heavy 1: not shown
heavy 2: EVQLVESGGGLVQPGGSLRLSCAASGFSLSSSYWISWVRQAPGKGLEWIGSIDSGSVGITYYATWVKGRFTISRDNSKNTLYLQMNSLRAEDTAVYYCARHGDNWALDLWGQGTLVTVSSASTKGPSVFPLAPSSKSTSGGTAALGCLVKDYFPEPVTVSWNSGALTSGVHTFPAVLQSSGLYSLSSVVTVPSSSLGTQTYICNVNHKPSNTKVDKRVEPKSCDKTHTCPPCPAPEAAGGPSVFLFPPKPKDTLMISRTPEVTCVVVDVSHEDPEVKFNWYVDGVEVHNAKTKPREEQYNSTYRVVSVLTVLHQDWLNGKEYKCKVSNKALPAPIEKTISKAKGQPREPQVCTLPPSREEMTKNQVSLSCAVKGFYPSDIAVEWESNGQPENNYKTTPPVLDSDGSFFLVSKLTVDKSRWQQGNVFSCSVMHEALHNHYTQKSLSLSPG
light 1: DIVMTQSPDSLAVSLGERATINCKSSQSLLNSRTRKNYLAWYQQKPGQPPKLLIYWASTRQSGVPDRFSGSGSGTDFTLTISSLQAEDVAVYYCTQSHTLRTFGGGTKVEIKPDIQNPDPAVYQLRDSKSSDKSVCLFTDFDSQTQVSQSKDSDVYITDKCVLDMRSMDFKSNSAVAWSQKSDFACANAFQNSIIPEDTFFPAPESS
light 2: DIQMTQSPSTLSASVGDRVTITCRASQSISSWLAWYQQKPGKAPKLLIYKASTLASGVPSRFSGSGSGTEFTLTISSLQPDDFATYYCQHGYIRGDLDNVFGGGTKVEIKRTVAAPSVFIFPPSDEQLKSGTASVVCLLNNFYPREAKVQWKVDNALQSGNSQESVTEQDSKDSTYSLSSTLTLSKADYEKHKVYACEVTHQGLSSPVTKSFNRGEC
notes: Second-generation 1+1 bispecific, expressed in CHO-K1; also called Bispecific 2; 4-3ab (second generation)
Take B1: the Kd in assay [1] is 70 pM; in assay [3] it was 100 pM; in assay [4], 840 pM; in [5], 9530 pM. Further, the “Autologous monocyte killing EC50” value in [2] was 0.026 nM. Moreover, in assay [2], the “T-cell cytotoxicity, MV4-11 EC50” value came to 2.5 pM. In assay [2], the “T-cell cytotoxicity, THP-1 EC50” value was determined as 4.3 pM. Further, the EC50 was 1300 pM in assay [6] and ~854000 pM in the assay with CD3 on Jurkat cells.

B2: 4ab3-4ab S91A (bispecific antibody, human IgG1, kappa, L234A L235A)
heavy 1: not shown
heavy 2: EVQLVESGGGLVQPGGSLRLSCAASGFSLSSSYWISWVRQAPGKGLEWIGSIDSGSVGITYYATWVKGRFTISRDNSKNTLYLQMNSLRAEDTAVYYCARHGDNWALDLWGQGTLVTVLEDLKNVFPPEVAVFEPSEAEISHTQKATLVCLATGFYPDHVELSWWVNGKEVHSGVCTDPQPLKEQPALQDSRYALSSRLRVSATFWQNPRNHFRCQVQFYGLSENDEWTQDRAKPVTQIVSAEAWGRASDKTHTCPPCPAPEAAGGPSVFLFPPKPKDTLMISRTPEVTCVVVDVSHEDPEVKFNWYVDGVEVHNAKTKPREEQYNSTYRVVSVLTVLHQDWLNGKEYKCKVSNKALPAPIEKTISKAKGQPREPQVCTLPPSREEMTKNQVSLSCAVKGFYPSDIAVEWESNGQPENNYKTTPPVLDSDGSFFLVSKLTVDKSRWQQGNVFSCSVMHEALHNHYTQKSLSLSPG
light 1: not shown
light 2: DIQMTQSPSTLSASVGDRVTITCRASQSISSWLAWYQQKPGKAPKLLIYKASTLASGVPSRFSGSGSGTEFTLTISSLQPDDFATYYCQHGYIRGDLDNVFGGGTKVEIKPDIQNPDPAVYQLRDSKSSDKSVCLFTDFDSQTQVSQSKDSDVYITDKCVLDMRSMDFKSNSAVAWSQKSDFACANAFQNSIIPEDTFFPAPESS
notes: Second-generation 2+1 bispecific, expressed in CHO-K1; also called Bispecific 1; 4ab3-4ab (second generation)
With B2, the Kd in assay [1] stood at 260 pM; in assay [3], 70 pM; in [4], 890 pM; in [5] it was 8820 pM. Also, the “Autologous monocyte killing EC50” value in assay [2] was 0.0059 nM. Moreover, the “T-cell cytotoxicity, MV4-11 EC50” value in assay [2] was found to be 0.034 pM. The “T-cell cytotoxicity, THP-1 EC50” value in assay [2] was 0.5 pM. Moreover, the values for the EC50 (in assay [6]; with CD3 on Jurkat cells) were 700 pM and ~257000 pM, respectively.

B3: H7K3m5 (antibody, V domains shown)
VH: EVQLVESGGGLVQPGGSLRLSCAASGFSLSSSYWISWVRQAPGKGLEWIGSIDSGSVGITYYATWVKGRFTISRDNSKNTLYLQMNSLRAEDTAVYYCARHGDNWALDLWGQGTLVTVSS
VL: DIQMTQSPSTLSASVGDRVTITCRASQSISSWLAWYQQKPGKAPKLLIYKASTLASGVPSRFSGSGSGTEFTLTISSLQPDDFATYYCQHGYIRGDLDNVFGGGTKVEIK
notes: Full-length IgG; human IgG1 is used as its isotype control; Only variable regions are tied to the name; Wild type (fucosylated) form unless said otherwise; also called variant 9; K3m5 (N/S)
For the molecule B3, the “EC50 (read off the curve)” value in [7] was ~500 pM; in [11], ~300 pM. In addition, the EC50 in assay [8] was found to be 1120 pM; in assay [9], 415 pM. In addition, in [10], the “T-cell cytotoxicity against THP-1-GFP cells, mean EC50 (n=3)” value was found to be 208 pM.
